The values that follow come from PMC5593896, “A signal-on built in-marker electrochemical aptasensor for human prostate-specific antigen based on a hairbrush-like gold nanostructure”.

For the data set, the target named is prostate-specific antigen (PSA) (human, UniProt P07288 25-261). Briefly: electrochemical aptasensor (signal-on, MB marker); immobilized aptamer; linear range 0.125-128 ng/mL, LOD 50 pg/mL (40 in Table 1); no Kd in material; 20 mM Tris-HCl pH 7.4, 1 h at 37 °C, then rinsed with Tris; salt not stated. Conditions: protein: commercial; label: methylene blue (3', redox marker).
Chain of prostate-specific antigen (PSA) (P07288 25-261): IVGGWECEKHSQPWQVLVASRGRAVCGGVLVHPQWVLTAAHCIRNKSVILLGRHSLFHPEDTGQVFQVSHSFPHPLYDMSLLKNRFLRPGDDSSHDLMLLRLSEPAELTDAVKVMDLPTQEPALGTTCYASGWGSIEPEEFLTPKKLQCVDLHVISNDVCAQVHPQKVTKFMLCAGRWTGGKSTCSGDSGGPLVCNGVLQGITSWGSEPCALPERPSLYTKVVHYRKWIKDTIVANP

Consider TTTTTAATTAAAGCTCGCCATCAAATAGCTTT (ssDNA, 5' SH-(CH2)6; 3' methylene blue) [PSA aptamer (SH/MB)], for which the binding result is reported as “binds”.
